Like-named read-outs stand apart in the source and are kept apart here.
Key:
[1] = system: FIV; experiment: CPSF6-358 restriction assay, FIV; type: cell-based; details: HEK293T expressing CPSF6-358 vs vector control, GFP virus, MOI 0.4 to 0.5, 48 h (Fig. 5B)
Experimental: (§1) Vector control HEK293T cells were infected with GFP viruses at approximate MOIs of 0.4 to 0.5 alongside cells expressing CPSF6-358 (Fig. 5A).
(§2) HEK293T cells were cultured at 37°C in Dulbecco’s modified Eagle’s medium containing 10% (vol/vol) fetal bovine serum (FBS), 100 IU/ml penicillin, and 100 μg/ml streptomycin (DMEM) in humidified incubators in the presence of 5% CO2.
(§3) Single-cycle GFP and Luc reporter viruses were produced by cotransfection of HEK293T cells in 10-cm dishes with 15 μg total of various ratios of virus production plasmids using PolyJet DNA transfection reagent (SignaGen Laboratories). […] Concentrations of retroviral particles in mU/ml were determined using a TaqMan-based product-enhanced reverse transcriptase (Taq-PERT) real-time PCR assay ([80]).
(§4) Infections were conducted in duplicate in 24-well plates (10^5 cells/well). […] GFP reporter viral MOIs were determined as percentage of GFP-positive cells using a FACSCanto flow cytometer (BD Biosciences). […] Cell lysates were centrifuged at 17,500 × g for 8 min, and supernatants were analyzed in triplicate for luciferase activity. Relative light units (RLU), determined by luminometer (Berthold Technologies), were normalized to total protein concentration as measured by Pierce BCA protein assay kit (Thermo Fisher Scientific).

[2] = system: BIV; experiment: CPSF6-358 restriction assay, BIV; type: cell-based; details: HEK293T expressing CPSF6-358 vs vector control, GFP virus, MOI 0.4 to 0.5, 48 h (Fig. 5B)
Experimental: as §1, §2, §3, §4

[3] = system: SIVmac; experiment: CPSF6-358 restriction assay, SIVmac; type: cell-based; details: HEK293T expressing CPSF6-358 vs vector, Luc virus, range of virus inocula (Fig. 5C)
Experimental: as §1, §2, §3, §4

[4] = system: HIV-1; details: cited from earlier work
[5] = system: SIVmac; parameters: method as in 2 sources, ref 33 = [33]; PMID 20227665; doi:10.1016/j.chom.2010.02.007; 33. Lee K , Ambrose Z , Martin TD , Oztop I , Mulky A , Julias JG , Vandegraaff N , Baumann JG , Wang R , Yuen W , Takemura T , Shelton K , Taniuchi I , Li Y , Sodroski J , Littman D , Coffin J , Hugh ||| ref 35 = [35]; PMID 24130490; doi:10.1371/journal.ppat.1003693; 35. Matreyek KA , Yücel SS , Li X , Engelman A 2013 Nucleoporin NUP153 phenylalanine-glycine motifs engage a common binding pocket within the HIV-1 capsid protein to mediate lentiviral infectivity . P; details: cited from earlier work
[6] = system: MLV; experiment: CPSF6-358 restriction assay, MLV; type: cell-based; details: HEK293T expressing CPSF6-358 vs vector control, GFP virus, MOI 0.4 to 0.5, 48 h (Fig. 5B)
Experimental: as §1, §2, §3, §4

[7] = system: SIVmne; parameters: method as in PMID 20227665; details: cited from earlier work
[8] = system: primate lentiviruses; experiment: CPSF6-358 restriction assay, primate lentiviruses; type: cell-based; details: HEK293T expressing CPSF6-358 vs vector control, GFP viruses, MOI 0.4 to 0.5, 48 h (Fig. 5B)
Experimental: as §1, §2
(§5) Infections were conducted in duplicate in 24-well plates (10^5 cells/well). After 6 to 8 h, medium was replaced with fresh DMEM or RPMI, and cells were harvested at 48 h from the start of the experiment. GFP reporter viral MOIs were determined as percentage of GFP-positive cells using a FACSCanto flow cytometer (BD Biosciences).

[9] = system: EIAV; experiment: CPSF6-358 restriction assay, EIAV; type: cell-based; details: HEK293T expressing CPSF6-358 vs vector control, GFP virus, MOI 0.4 to 0.5, 48 h (Fig. 5B)
Experimental: as §1, §2, §5

[10] = system: HIV-1; details: HEK293T expressing CPSF6-358 vs vector, Luc virus, range of virus inocula (Fig. 5C)
Experimental: as §1, §2, §3, §4

[11] = system: HIV-2; parameters: method as in PMID 20227665; details: cited from earlier work

B1: CPSF6-358 (protein, UniProt Q16630 1-358, looked up, fragment)
chain: MADGVDHIDIYADVGEEFNQEAEYGGHDQIDLYDDVISPSANNGDAPEDRDYMDTLPPTVGDDVGKGAAPNVVYTYTGKRIALYIGNLTWWTTDEDLTEAVHSLGVNDILEIKFFENRANGQSKGFALVGVGSEASSKKLMDLLPKRELHGQNPVVTPCNKQFLSQFEMQSRKTTQSGQMSGEGKAGPPGGSSRAAFPQGGRGRGRFPGAVPGGDRFPGPAGPGGPPPPFPAGQTPPRPPLGPPGPPGPPGPPPPGQVLPPPLAGPPNRGDRPPPPVLFPGQPFGQPPLGPLPPGPPPPVPGYGPPPGPPPPQQGPPPPPGPFPPRPPGPLGPPLTLAPPPHLPGPPPGAPPPAPHVN
[1]
  restriction of infection, in words: did not significantly restrict FIV infection
[2]
  restriction of infection, in words: infection by BIV was similarly unaffected
[3]
  restriction of infection, in words: restriction of HIV-1 and SIVmac-Luc viruses was observed across a range of virus inocula
[4]
  restriction of infection, in words: restricted infection
[5]
  restriction of infection, in words: restricted infection
[6]
  restriction of infection, in words: MLV-GFP similarly infected control and CPSF6-358-expressing cells
[7]
  restriction of infection, in words: restricted infection
[8]
  restriction of infection, in words: potently restricted infection by primate lentiviruses
[9]
  restriction of infection, in words: failed to appreciably restrict EIAV infection
[10]
  restriction of infection, in words: restriction of HIV-1 and SIVmac-Luc viruses was observed across a range of virus inocula
[11]
  restriction of infection, in words: restricted infection
